The record followed here is the supplement of paper PMC12783771.

B1: library; a variant is named by its letters at X, in order (parent)
chain: MNIQIGELAKRTACPVVTIRFYEQEGLLPPPGRSRGNFRLYGEEHVERLQFIRHCRSLDMPLSXVRTLLSYRKRPDQDCGEVXMLLDEHIRQVESRIGALLELXHHXVELREACSGARPAQSCGILQXLSXCVCXTRGTTAHXSD

The variants in data set [1] derive from B1. Nature of the data set: sfGFP reporter fluorescence (15 h) (µM FITC); higher = higher leak. The conditions noted are these: library round: Round 3; ligand: none. Here is the method: (§1)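 Cell-free biosensing: 1 µL Echo-assembled CFE reactions with linear PbrR variant templates (5 nM) and pPbrR-sfGFP reporter, with 1 µM Pb, 30 µM Zn or no ligand; endpoint sfGFP fluorescence after 15 h at 30 °C calibrated as µM FITC. Round 3 ML-predicted PbrR mutants; up to 3 biological replicates.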

Data set [2] covers variants of B1. As to the kind of experiment: sfGFP reporter fluorescence (15 h) (µM FITC); higher = stronger transcriptional activation. The note with it: library round: Round 3. Here is the method:
as §1

± gives the standard deviation of the averaged measurements.

MNIQIGELAKRTACPVVTIRFYEQEGLLPPPGRSRGNFRLYGEEHVERLQFIRHCRSLDMPLSKVRTLLSYRKRPDQDCGAVNMLLDEHIRQVESRIGALLELVHHCVELREACSGARPAQSCGILQMLSDCVCDTRGTTAHPSD [KNVCMDDP E81A]: the figures for the sfGFP reporter fluorescence in data set [1], in data set [2] (ligand: 1 µM Pb) and in data set [2] (ligand: 30 µM Zn) were 2.21 ± 0.21, 3.01 ± 0.4 and 2.71 ± 0.34, respectively.

As for MNIQIGELAKRTACPVVTIRFYEQEGLLPPPGRSRGNFRLYGEEHVERLQFIRHCRSLDLNLSKVRTLLSYRKRPDQDCGEVNMLLDEHIRQVESRIGALLELVHHEVELREACSGARPAQSCGILQGLSDCVCDTRGTTAHPSD [KNVEGDDP M60L P61N], the results for the sfGFP reporter fluorescence in data set [1], in data set [2] (ligand: 1 µM Pb) and in data set [2] (ligand: 30 µM Zn) were 0.043 ± 0.00089, 0.0385 ± 0.00085 and 0.047 ± 0.0012, respectively.

MNIQIGELAKRTACPVVTIRFYEQEGLLPPPGRSRGNFRLYGEEHVERLQFIRHCRSLDMPLSDVRTLLSYRKRPDQDCGEVTMLLDEHIRQVESRIGALLELKHHLLELREACSGARPAQSCGILQGLSMCVCATRGTTAHPSD [DTKLGMAP V108L]: the sfGFP reporter fluorescence in data set [1] amounted to 0.0403 ± 0.00095; in data set [2] (ligand: 1 µM Pb), 0.0673 ± 0.0042; in data set [2] (ligand: 30 µM Zn), 0.288 ± 0.018.

With MNIQIGELAKRTACPVVTIRFYEQEGLLPPPGRSRGNFRLYGEEHVERLQFIRHCRSLDLPLSKVRTLLSYRKRPDQDCGAVNMLLDEHIRQVESRIGALLELVHHCVELREACSGARPAQSCGILQGLSDCVCDTRGTTAHPSD [KNVCGDDP M60L E81A], the sfGFP reporter fluorescence was determined as 2.61 ± 0.12 in data set [1], 3.41 ± 0.23 in data set [2] (ligand: 1 µM Pb) and 2.76 ± 0.4 in data set [2] (ligand: 30 µM Zn).

Consider MNIQIGELAKRTACPCVTIRFYEQEGLLPPPGRSRGNFRLYGEEHVERLQFIRCPRSLDMPLSLVRTLLSYRKRPDQDCGEVIMLLDEHIRQVESRIGALLELLHACVELREACSGARPAQSCGILQGLSACVCATRGTTAHPSD [LILCGAAP V16C H54C C55P H106A], for which the results for the sfGFP reporter fluorescence in data set [1], in data set [2] (ligand: 1 µM Pb) and in data set [2] (ligand: 30 µM Zn) were 0.0465 ± 0.0014, 0.0436 ± 0.0014 and 0.0502 ± 0.002, respectively.

As for MNIQIGELAKRTACPVVTIRFYEQEGLLPPPGRSRGNFRLYGEEHVERLQFIRHCRSLDMPLSKVRTLLSYRKRPDQDCGEVFMLLDEHARQVESRIGALLELVHALVELREACSGARPAQSCGILQGLSDCVCDTRGTTAHPSD [KFVLGDDP I90A H106A], the sfGFP reporter fluorescence in data set [1] worked out at 0.0469 ± 0.002; in data set [2] (ligand: 1 µM Pb) it was 0.441 ± 0.013; in data set [2] (ligand: 30 µM Zn), 0.0549 ± 0.0013.

As for MNIQIGELAKRTACPVVTIRFYEQEGLLPPPGRSRGNFRLYGEEHVERLQFIRHCRSLDMPLSDVRTLLSYRKRPDQDCGEVTMLLDEHIRQVESRIGALLELKHHCVELREACSGARPAQSCGILQGLSCCVCDTRGTTAHASD [DTKCGCDA], the values for the sfGFP reporter fluorescence in data set [1], in data set [2] (ligand: 1 µM Pb) and in data set [2] (ligand: 30 µM Zn) were 0.126 ± 0.0021, 1.6 ± 0.12 and 1.51 ± 0.051, respectively.

For the variant MNIQIGELAKRTACPVVTIRFYEQEGLLPPPGRSRGNFRLYGEEHVERLQFIRHCRSLDMPLSDVRTLLSYRKRPDQDCGEVNMLLDEHIRQVESRIGALVELKHHLVELREACSGARPAQSCGILQHLSACVCPTRGTTAHWSD [DNKLHAPW L101V], the sfGFP reporter fluorescence in data set [1] amounted to 0.06686 ± 0.00034; in data set [2] (ligand: 1 µM Pb) it was 0.307 ± 0.028; in data set [2] (ligand: 30 µM Zn), 1.11 ± 0.06.

Turning to MNIQIGELAKRTACPVVTIRFYEQEGLLPPPGRSRGNFRLYGEEHVERLQFIRHCRSLDMPLSDVRTLLSYRKRPDQDCGEVSMLLDEHIRQVESRIGALLELKHHLLELREACSGARPAQSCGILQGLSMCVCATRGTTAHPSD [DSKLGMAP V108L], the results for the sfGFP reporter fluorescence in data set [1], in data set [2] (ligand: 1 µM Pb) and in data set [2] (ligand: 30 µM Zn) were 0.043, 0.0646 ± 0.004 and 0.354 ± 0.015, respectively.

Take MNIQIGELAKRTACPVVTIRFYEQEGLLPPPGRSRGNFRLYGEEHVERLQFIRHCRSLDMPLSDVRTLLSYRKRPDQDCGEVTMLLDEHIRQVESRIGALLELKHHLVELREACSGARPAQSCGILQGLSSCVCPTRGTTAHLSD [DTKLGSPL]: the sfGFP reporter fluorescence in data set [1] is 0.0411 ± 0.0014; in data set [2] (ligand: 1 µM Pb) it was 0.1583 ± 0.0015; in data set [2] (ligand: 30 µM Zn), 0.196 ± 0.019.

Consider MNIQIGELAKRTACPVVTIRFYEQEGLLPPPGRSRGNFRLYGEEHVERLQFIRHCRSLDMNLSDVRTLLSYRKRPDQDCGEVNMLLDEHIRQVESRIGALLELKHHCVELREACSGARPAQSCGILQMLSDCVCATRGTTAHKSD [DNKCMDAK P61N], for which the figures for the sfGFP reporter fluorescence in data set [1], in data set [2] (ligand: 1 µM Pb) and in data set [2] (ligand: 30 µM Zn) were 2.25 ± 0.34, 2.76 ± 0.33 and 3.11 ± 0.2, respectively.

MNIQIGELAKRTACPVVTIRFYEQEGLLPPPGRSRGNFRLYGEEHVERLQFIRHCRSLDMDLSDVRTLLSYRKRPDQDCGEVNMLLDEHIRQVESRIGALLELKHHCVELREACSGARPAQSCGILQMLSDCVCATRGTTAHKSD [DNKCMDAK P61D]: the results for the sfGFP reporter fluorescence in data set [1], in data set [2] (ligand: 1 µM Pb) and in data set [2] (ligand: 30 µM Zn) were 0.53 ± 0.072, 0.903 ± 0.12 and 2.24 ± 0.45, respectively.

Consider MNIQIGELAKRTACPVVTIRFYEQEGLLPPPGRSRGNFRLYGEEHVERLQFIRHCRSLDMPLSDVRTLLSYRKRPDQDCGEVTMLLDEHIRQVESRIGALLELKHHLVELREACSGARPAASCGILQGLSCCVCDTRGTTAHLSD [DTKLGCDL Q121A], for which the sfGFP reporter fluorescence in data set [1] came out at 0.0413 ± 0.00047; in data set [2] (ligand: 1 µM Pb) it was 0.101 ± 0.0031; in data set [2] (ligand: 30 µM Zn), 0.103 ± 0.0093.

Consider MNIQIGELAKRTACPVVTIRFYEQEGLLPPPGRSRGNFRLYGEEHVERLQFIRHCRSLDLPLSDVRTLLSYRKRPDQDCGEVNMLLDEHIRQVESRIGALLELVHHCVELREACSGARPAQSCGILQILSDCVCDTRGTTAHASD [DNVCIDDA M60L], for which the figures for the sfGFP reporter fluorescence in data set [1], in data set [2] (ligand: 1 µM Pb) and in data set [2] (ligand: 30 µM Zn) were 0.73 ± 0.014, 2.2 ± 0.24 and 2.23 ± 0.2, respectively.
